Results: PMC3907796, “The C-Terminal Region of G72 Increases D-Amino Acid Oxidase Activity” (International Journal of Molecular Sciences, 2013)
No end group written: not given here. *: point of attachment. Biotin = O=C1N[C@H]2[C@H](CS[C@H]2CCCCC(=O)*)N1

B1: N-terminally biotinylated G72(138-153) peptide (peptide, UniProt P59103 138-153, looked up)
peptide: Biotin-KDQSCNHKEITSTKAE
B3: DAO-6H (recombinant D-amino acid oxidase with C-terminal (His)6) (enzyme)
chain: not shown
notes: D-amino acid oxidase (DAO), cDNA amplified with DAO-F'-NdeI/DAO-R'-XhoI (the primers of the full-length 1044 bp cDNA, GI:30524341), in pET23a(+); Detected in the pull-down with anti-His-tag; also called recombinant DAO; source: E. coli BL21(DE3)pLysS, purified (HisTrap FF); not shown: His6, C-terminal, kept
B4: N-terminally biotinylated G72(123-153) peptide (peptide, UniProt P59103 123-153, looked up)
peptide: Biotin-RQPLERMWTCNYNQQKDQSCNHKEITSTKAE
modifications: cysteine pairing not given here

Columns and labels:
[1] = target: B3; assay: cell-based or functional assay
[2] = target: T1, BD-G72 (full-length G72 N-terminally tagged with the binding domain) (UniProt P59103 1-153); assay: two-hybrid; β-galactosidase activity of AH109 transformants grown in SD/-2 broth at 30 °C, normalised to yeast with the AD and BD tags alone; conditions: partners not purified
T1 construct: probably pGBKT7; The BD fusion was detected with anti-c-Myc; also called full-length BD-G72; G72 isoform 1; source: yeast two-hybrid fusion, S. cerevisiae AH109; not shown: from the vector pGBDT7), N-terminal, kept
T1 sequence (looked up): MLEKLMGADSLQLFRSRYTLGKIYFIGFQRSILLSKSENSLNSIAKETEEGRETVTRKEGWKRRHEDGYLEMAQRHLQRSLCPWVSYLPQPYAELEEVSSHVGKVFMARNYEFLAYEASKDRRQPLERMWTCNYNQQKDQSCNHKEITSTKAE

[3] = target: B1; assay: pull-down; 10 μg biotinylated G72 peptide on streptavidin Sepharose beads, 10 μg DAO-6H in phosphate-buffered saline, 4 °C, 3 h, ten washes; DAO detected by Western blotting (anti-His-tag); beads alone as control; conditions: both partners purified
[4] = target: B4; assay: as above; conditions: both partners purified

## B1
[1]
  initial velocity (V0) of DAO activity (400 nM DAO-6H, 40 mM D-alanine, 25 °C) with 0, 1, 3, 10 μM G72(138-153); V0 at 10 μM, fold of DAO alone in parentheses: 2.94 mol hydrogen peroxide produced/min/g DAO

B2: AD-DAO (D-amino acid oxidase N-terminally tagged with the activation domain) (enzyme)
chain: not shown
notes: D-amino acid oxidase (DAO), full-length cDNA of 1044 bp, GI:30524341; The AD fusion was detected with anti-HA; source: yeast two-hybrid fusion, S. cerevisiae AH109; not shown: from the vector pGADT7), N-terminal, kept
[2]
  relative interaction strength by β-galactosidase activity (AD tag with BD tag = 1): 5.7 fold

## B3
[3]
  relative amount of DAO pulled down (against beads alone): 2.17 fold
[4]
  relative amount of DAO pulled down (against beads alone): 1.38 fold

## B4
[1]
  initial velocity (V0) of DAO activity (400 nM DAO-6H, 40 mM D-alanine, 25 °C) with 0, 1, 3, 10 μM G72(123-153); V0 at 10 μM, fold of DAO alone in parentheses: 2.71 mol hydrogen peroxide produced/min/g DAO
